{"source": "patent US20240209367", "proteins": {"B1": {"name": "Complement Factor I (FI) (protein)", "chain": "KVTYTSQEDLVEKKCLAKKYTHLSCDKVFCQPWQRCIEGTCVCKLPYQCPKNGTAVCATNRRSFPTYCQQKSLECLHPGTKFLNNGTCTAEGKFSVSLKHGNTDSEGIVEVKLVDQDKTMFICKSSWSMREANVACLDLGFQQGADTQRRFKLSDLSINSTECLHVHCRGLETSLAECTFTKRRTMGYQDFADVVCYTQKADSPMDDFFQCVNGKYISQMKACDGINDCGDQSDELCCKACQGKGFHCKSGVCIPSQYQCNGEVDCITGEDEVGCAGFASVTQEETEILTADMDAERRRIKSLLPKLSCGVKNRMHIRRKRIVGGKRAQLGDLPWQVAIKDASGITCGGIYIGGCWILTAAHCLRASKTHRYQIWTTVVDWIHPDLKRIVIEYVDRIIFHENYNAGTYQNDIALIEMKKDGNKKDCELPRSIPACVPWSPYLFQPNDTCIVSGWGREKDNERVFSLQWGEVKLISNCSKFYGNRFYEKEMECAGTYDGSIDACKGDSGGPLVCMDANNVTYVWGVVSWGENCGKPEFPGVYTKVANYFDWISYHVGRPFISQYNV"}}, "target": "C3b"}
{"protein": "B1", "values": [{"measurement": "in vitro C3b breakdown assay (C3b incubated with FI and a fragment of cofactor CR1; time course by gel electrophoresis and GluC/SRM-MS)", "value": "the formation of C3b fragments iC3b, C3f and C3c, and loss of intact C3b can be clearly detected over time"}]}
